Measured values as given in paper PMC9834240, “Senescent cells perturb intestinal stem cell differentiation through Ptk7 induced noncanonical Wnt and YAP signaling” (Nature Communications, 2023).
Where “and” joins values, the source holds several entries; their conditions need not be identical. Equal entries are not always repeated.

Columns and labels:
Type in all cases: cell-based
[1] = test system: YAP in mouse intestinal organoids; test: whole mount immunostaining for YAP nuclear localization
Experimental: For whole mount staining, freshly passaged crypts were mixed with Matrigel (Corning, #356231) and mounted to µ-Slide 8 well chamber slides (ibidi, #80826). Media were changed every 2–3 d. 5 days later, organoids in the chamber slides were then fixed in 4% formaldehyde in PBS for 30 min, permeabilized with 0.5% Triton X-100 for 1 h, and incubated in blocking solution (3% normal donkey serum (Sigma-Aldrich, #566460) and 5% BSA (Sigma-Aldrich, #A7979) in 0.1% Triton X-100 + PBS) for 1 h. Primary and secondary antibodies were diluted in blocking solution and added to fixed organoids. Organoids were incubated with primary antibodies overnight at 4 °C and with secondary antibodies for 2 h. ProLong Diamond Antifade Mountant (Invitrogen, # P36970) was added. Images were acquired with a Yokogawa CSU-W1/Zeiss 3i Marianas spinning disk confocal microscopy system. For each organoid, Z-planes up to 100 μm with 1 or 1.5 μm z-steps were acquired to quantify the number of cell types.

[2] = test system: mouse intestinal organoids; test: cystic organoid percentage, organoids in conditioned media (SCM/QCM) with or without inhibitors or antibodies; conditions: SCM-exposed organoids
Experimental: Twenty-four hours before collecting conditioned media (CM), MEFs were washed with serum-free DMEM twice, and serum-free DMEM was added. After 24 h in serum-free DMEM, this CM was collected, filtered using Steriflip filters (Millipore, #SE1M179M6) to remove cell debris, and concentrated using centrifugal filter units (Amicon ultra-15 centricon; Millipore, # UFC900324). […] CM was filtered and dialyzed for 24–48 h to remove the inhibitors before concentration.
(§1) The jejunum part of the small intestine was removed, flushed with PBS, opened longitudinally, then cut into 0.5 cm pieces. The collected tissues were washed with ice cold PBS multiple times by vortexing and incubated in PBS containing 2.5 mM EDTA for 5 min at 37 °C. After gentle shaking and aspiration, tissues were incubated in PBS containing 5 mM EDTA for 7 min at 37 °C. Tissues were then washed with PBS to remove EDTA and vigorously shaken to release crypts. The released crypts were passed through 70 μm strainers, washed with PBS, and pelleted by centrifugation at 200 × g.
(§2) 3-4 biological replicates of organoids from different mice were used per condition. Organoids were cultured in the indicated media, inhibitors, antibodies and/or recombinant proteins for 5 d and fixed in 4% formaldehyde in PBS. Organoids were imaged with a 4× Plan Fluor objective (NA: 0.13, Nikon) on a Nikon Ti-E inverted microscope equipped with a Neo scMOS camera (Andor, Oxford Instruments), a linear encoded automated stage (Applied Scientific Instrumentation), all run by NIS Elements software (Nikon). Organoids were imaged in brightfield and images covering the whole well were stitched and focused into one image projection with an extended depth of focus module (EDF; Nikon). One hundred to 200 organoids per replicate per condition were counted and used for quantification. The number of budding organoids in each condition was normalized by the number of budding organoids in untreated or DMSO treated controls to calculate cystic organoid percentage:1 Cysticorganoidpercentage=100×1−Numberofbuddingorganoidsfromexperiment/Numberofbuddingorganoidsfromcontrol

[3] = test system: mouse intestinal organoids; test: inhibition of Wnt5a-induced cystic organoids; conditions: Wnt5a-treated organoids
Experimental: as §1, with “g. Resuspended crypts were mixed with Matrigel (Corning, #356231; Lot#8218007) and pipetted into culture plates. After mixture of crypts and Matrigel solidified, IntestiCult Organoid Growth Medium (Stem Cell Technologies, #06005; Lots #1000021927, #1000034230, #1000037372) was added. Seven days after seeding, organoids were resuspended in dissociation buffer (Gentle Cell Dissociation Reagent; Stem Cell Technologies, #07174), dissociated by pipetting, and seeded for experiments.” for “g.”
as §2

[4] = test system: mouse intestinal organoids; test: cystic organoid percentage, organoids treated with recombinant Wnt ligands (Wnt3a, Wnt5a, Wnt11); conditions: for percentage of cystic organoids: Fig. 4e, individual mice, n = 3; for induction of cystic organoids: recombinant Wnt ligand added to crypt cultures; for cystic organoid percentage: SF.3p, Untreated = 0
Experimental: as §1, with “g. Resuspended crypts were mixed with Matrigel (Corning, #356231; Lot#8218007) and pipetted into culture plates. After mixture of crypts and Matrigel solidified, IntestiCult Organoid Growth Medium (Stem Cell Technologies, #06005; Lots #1000021927, #1000034230, #1000037372) was added. Seven days after seeding, organoids were resuspended in dissociation buffer (Gentle Cell Dissociation Reagent; Stem Cell Technologies, #07174), dissociated by pipetting, and seeded for experiments.” for “g.”
as §2

[5] = test system: β-Catenin-dependent Wnt signaling (HEK293-TB cells); test: TOPbrite dual-luciferase Wnt reporter assay; conditions: SF.3e
Experimental: Generation of HEK293 cells stably expressing a TOPbrite firefly luciferase Wnt reporter and pRL-SV40 Renilla luciferase (HEK293-TB) was previously described. HEK293-TB cells were maintained in DMEM/F12 (50:50), supplemented with 10% FBS, 2 mM Glutamax (Gibco, #35050-061) and 40 μg/ml hygromycin (Cellgro, #30-240-CR). For the luciferase reporter assay, HEK293-TB cells were seeded in 96-well plates (Falcon, #353377). The next day, cells were treated with indicated Wnt ligands (50 ng/ml) or CM diluted in culture media. After 24 h, the firefly and Renilla luciferase activity was measured using Dual-Glo Luciferase Assay system (Promega, #E2940) on a Perkin Elmer EnVision multilabel reader. The ratios of firefly luminescence to Renilla luminescence were calculated and normalized to control samples that were not treated.

[6] = test system: cytosolic Ca2+ in mouse intestinal organoids; test: live Ca2+ imaging of mouse intestinal organoids (GCaMP6f/tdTomato: baselined area under curve, peak number, height, width); conditions: live organoids expressing GCaMP6f
Experimental: Z stacks were acquired every 10 s.
Z-stack images were converted to mean intensity projections and, where required; background was subtracted using a rolling ball algorithm. Segmentation was conducted on a max-projection over-time of the GCaMP6f channel using Cellpose’s pre-trained “Cytoplasm” classifier. Mean intensity traces were measured in each ROI over the time course in both the GCaMP6f and TdTomato channels using scikit-image[138]. Ca^2+ oscillation patterns were calculated in an unsupervised, automated manner using MATLAB. Mean intensity traces were smoothed using a Savitzky-Golay filter and peaks were identified using the “findpeaks” algorithm from the MATLAB Signal Processing Toolbox. Graphs for GCaMP6f/tdTomato fluorescence ratio, peak numbers, peak height, peak width and baselined area under the curve were generated using Python matplotlib and seaborn packages. Statistical analysis was performed using Python SciPy and scikit-post-hoc packages.

Q: What does the source list for `CN([C@@H](Cc1ccc(OS(=O)(=O)c2cccc3cnccc23)cc1)C(=O)N1CCN(c2ccccc2)CC1)S(=O)(=O)c1cccc2cnccc12` [KN-62]?
A: effect on nuclear localization of YAP [1]: reversed SCM- or Wnt5a-induced nuclear translocation of YAP; effect on cystic organoid phenotype [2]: suppressed the cystic organoid phenotype

Q: `O=C(O)c1ccc2c3c1cccc3c(=O)n1c3ccccc3nc21` [STO-609] was tested. Which “effect on nuclear localization of YAP” value [1] did it give?
A: reversed SCM- or Wnt5a-induced nuclear translocation of YAP

Q: What about the “effect on cystic organoid phenotype” value [2] of the same molecule?
A: suppressed the cystic organoid phenotype

Q: Which results are given for `CN1CCN(CCCN2c3ccccc3Sc3ccc(C(F)(F)F)cc32)CC1` [TFP, Trifluoperazine]?
A: effect on nuclear localization of YAP [1]: reversed SCM- or Wnt5a-induced nuclear translocation of YAP; effect on Wnt5a-induced cystic organoid phenotype [3]: reduced the percentage of cystic organoids; effect on cystic organoid phenotype [2]: reduced the percentage of cystic organoids

Q: With Wnt3a [reference compound] as the molecule, how does the “percentage of cystic organoids” value ([4]; Wnt3a 25 ng/ml) read?
A: 7.495% and 3.142% and 6.766%

Q: What about the “percentage of cystic organoids” value ([4]; Wnt3a 50 ng/ml) of the same molecule?
A: 18.7879% and 6.422% and 6.8556%

Q: And the “percentage of cystic organoids” value ([4]; Wnt3a 100 ng/ml)?
A: 13.092% and 2.902% and 16.5461%

Q: And the “percentage of cystic organoids” value ([4]; Wnt3a 250 ng/ml)?
A: 21.7379% and 11.3578% and 13.1232%

Q: And the “percentage of cystic organoids” value ([4]; Wnt3a 500 ng/ml)?
A: 37.371% and 19.4444% and 31.0445%

Q: What about the “induction of cystic organoids” value [4] of the same molecule?
A: dose-dependently increased organoids with cystic morphology

Q: What about the “TOPbrite dual-luciferase Wnt reporter activity” value ([5]; replicate 1) of the same molecule?
A: 83.0786

Q: And the “TOPbrite dual-luciferase Wnt reporter activity” value ([5]; replicate 2)?
A: 67.4901

Q: What about the “TOPbrite dual-luciferase Wnt reporter activity” value ([5]; replicate 3) of the same molecule?
A: 77.6835

Q: And the “TOPbrite dual-luciferase Wnt reporter activity” value ([5]; replicate 4)?
A: 73.6039

Q: What about the “effect on cytosolic Ca2+ levels and oscillations” value [6] of the same molecule?
A: decreased cytosolic Ca^2+ levels

B1: Wnt11: noncanonical Wnt ligand; recombinant protein, R&D Systems 6179-WN-010 (protein, UniProt O96014 25-354, looked up)
Protein Wnt-11: IKWLALSKTPSALALNQTQHCKQLEGLVSAQVQLCRSNLELMHTVVHAAREVMKACRRAFADMRWNCSSIELAPNYLLDLERGTRESAFVYALSAAAISHAIARACTSGDLPGCSCGPVPGEPPGPGNRWGGCADNLSYGLLMGAKFSDAPMKVKKTGSQANKLMRLHNSEVGRQALRASLEMKCKCHGVSGSCSIRTCWKGLQELQDVAADLKTRYLSATKVVHRPMGTRKHLVPKDLDIRPVKDSELVYLQSSPDFCMKNEKVGSHGTQDRQCNKTSNGSDSCDLMCCGRGYNPYTDRVVERCHCKYHWCCYVTCRRCERTVERYVCK
Q: With B1 as the molecule, how does the cystic organoid percentage ([4]; 25ng/ml, replicate 1) read?
A: 1.8358

Q: And the cystic organoid percentage ([4]; 25ng/ml, replicate 2)?
A: -0.2717

Q: What about the cystic organoid percentage ([4]; 25ng/ml, replicate 3) of the same molecule?
A: -1.279

Q: And the cystic organoid percentage ([4]; 50ng/ml, replicate 1)?
A: -0.06739

Q: And the cystic organoid percentage ([4]; 50ng/ml, replicate 2)?
A: -5.163

Q: What about the cystic organoid percentage ([4]; 50ng/ml, replicate 3) of the same molecule?
A: 1.176

Q: And the cystic organoid percentage ([4]; 100ng/ml, replicate 1)?
A: -0.2558

Q: And the cystic organoid percentage ([4]; 100ng/ml, replicate 2)?
A: -1.25

Q: And the cystic organoid percentage ([4]; 100ng/ml, replicate 3)?
A: 2.262

Q: What about the cystic organoid percentage ([4]; 250 ng/ml, replicate 1) of the same molecule?
A: 2.331

Q: And the cystic organoid percentage ([4]; 250 ng/ml, replicate 2)?
A: -7.143

Q: And the cystic organoid percentage ([4]; 250 ng/ml, replicate 3)?
A: 1.176

Q: What about the cystic organoid percentage ([4]; 500ng/ml, replicate 1) of the same molecule?
A: 2.331

Q: What about the cystic organoid percentage ([4]; 500ng/ml, replicate 2) of the same molecule?
A: -1.6129

Q: What about the cystic organoid percentage ([4]; 500ng/ml, replicate 3) of the same molecule?
A: 1.42

Q: What about the cystic organoid percentage ([4]; 1ug/ml, replicate 1) of the same molecule?
A: 2.516

Q: And the cystic organoid percentage ([4]; 1ug/ml, replicate 3)?
A: -0.8403

Q: What about the “induction of cystic organoids” value [4] of the same molecule?
A: failed to induced cystic organoids

Q: And the “TOPbrite dual-luciferase Wnt reporter activity” value ([5]; replicate 1)?
A: 0.9689

Q: What about the “TOPbrite dual-luciferase Wnt reporter activity” value ([5]; replicate 2) of the same molecule?
A: 1.428

Q: What about the “TOPbrite dual-luciferase Wnt reporter activity” value ([5]; replicate 3) of the same molecule?
A: 1.229

Q: And the “TOPbrite dual-luciferase Wnt reporter activity” value ([5]; replicate 4)?
A: 1.621
